The values that follow come from patent JP2008512352A (dated 2008).

Several values for one entry are separate records, joined by “and”; a condition that tells them apart may be missing. Identical values can stand only once.

The target of one test is EGFR (腫瘍細胞上) (UniProt P00533 25-1210, limits assumed). The experiment in a line: cell-based or functional assay.
The next test addresses T1, ヒトEGFR (プレート被覆) (human, UniProt P00533 25-645).
T1 construct: extracellular domain; 'Extracellular domain' in the legend is read as applying to both EGFR and IGFR; also called 固定化EGFR
The experiment in a line: direct binding ELISA on immobilised EGFR (ED50: antibody concentration giving 50% of maximal binding).

The target in another test is T2, IGFR 細胞外ドメイン (プレート被覆) (human, UniProt P08069 31-935).
T2 construct: extracellular domain; 'ヒト' in the legend is read as applying to both EGFR and IGFR; also called 固定化IGFR; IGF-IR
Nature of the test: direct binding ELISA on immobilised IGFR (ED50: antibody concentration giving 50% of maximal binding).

B1: IMC-11F8 (antibody, V domains shown)
VH: QVQLQESGPGLVKPSQTLSLTCTVSGGSISSGDYYWSWIRQPPGKGLEWIGYIYYSGSTDYNPSLKSRVTMSVDTSKNQFSLKVNSVTAADTAVYYCARVSIFGVGTFDYWGQGTLVTVSS
VL: EIVMTQSPATLSLSPGERATLSCRASQSVSSYLAWYQQKPGQAPRLLIYDASNRATGIPARFSGSGSGTDFTLTISSLEPEDFAVYYCHQYGSTPLTFGGGTKAEIK
Regarding B1, the “DiFi細胞の増殖阻害 IC50 (MTT)” value with EGFR (腫瘍細胞上) is approximately 1 nM.

B2: 抗-EGFR/抗-IGFR ジ-ダイアボディ (bispecific antibody)
chain 1: QVQLQESGPGLVKPSQTLSLTCTVSGGSISSGDYYWSWIRQPPGKGLEWIGYIYYSGSTDYNPSLKSRVTMSVDTSKNQFSLKVNSVTAADTAVYYCARVSIFGVGTFDYWGQGTLVTVSS
chain 2: EIVMTQSPATLSLSPGERATLSCRASQSVSSYLAWYQQKPGQAPRLLIYDASNRATGIPARFSGSGSGTDFTLTISSLEPEDFAVYYCHQYGSTPLTFGGGTKAEIK
chain 3: EVQLVQSGAEVKKPGSSVKVSCKASGGTFSSYAISWVRQAPGQGLEWMGGIIPIFGTANYAQKFQGRVTITADKSTSTAYMELSSLRSEDTAVYYCARAPLRFLEWSTQDHYYYYYMDVWGKGTTVTVSS
chain 4: SSELTQDPAVSVALGQTVRITCQGDSLRSYYASWYQQKPGQAPVLVIYGKNNRPSGIPDRFSGSSSGNTASLTITGAQAEDEADYYCNSRDNSDNRLIFGGGTKLTVL
On to B2, for which the “DiFi細胞の増殖阻害 IC50 (MTT)” value with EGFR (腫瘍細胞上) was found to be 25 nM. Moreover, the EC50 with ヒトEGFR (プレート被覆) was 0.1 nM and 0.2 nM; with IGFR 細胞外ドメイン (プレート被覆) it was 0.25 nM and 0.5 nM.

B3: IMC-A12 (antibody, V domains shown)
VH: EVQLVQSGAEVKKPGSSVKVSCKASGGTFSSYAISWVRQAPGQGLEWMGGIIPIFGTANYAQKFQGRVTITADKSTSTAYMELSSLRSEDTAVYYCARAPLRFLEWSTQDHYYYYYMDVWGKGTTVTVSS
VL: SSELTQDPAVSVALGQTVRITCQGDSLRSYYASWYQQKPGQAPVLVIYGKNNRPSGIPDRFSGSSSGNTASLTITGAQAEDEADYYCNSRDNSDNRLIFGGGTKLTVL
Regarding B3, the EC50 with IGFR 細胞外ドメイン (プレート被覆) is 0.1 nM.

One may read the EC50 as the concentration giving half of the maximal effect.
